T1: human Kell glycoprotein, k form (KEL2) (human, UniProt P23276 1-732)
T1 construct: whole, on cells; On human k/k or K-k+ RBCs; also called k antigen
T1 sequence (looked up): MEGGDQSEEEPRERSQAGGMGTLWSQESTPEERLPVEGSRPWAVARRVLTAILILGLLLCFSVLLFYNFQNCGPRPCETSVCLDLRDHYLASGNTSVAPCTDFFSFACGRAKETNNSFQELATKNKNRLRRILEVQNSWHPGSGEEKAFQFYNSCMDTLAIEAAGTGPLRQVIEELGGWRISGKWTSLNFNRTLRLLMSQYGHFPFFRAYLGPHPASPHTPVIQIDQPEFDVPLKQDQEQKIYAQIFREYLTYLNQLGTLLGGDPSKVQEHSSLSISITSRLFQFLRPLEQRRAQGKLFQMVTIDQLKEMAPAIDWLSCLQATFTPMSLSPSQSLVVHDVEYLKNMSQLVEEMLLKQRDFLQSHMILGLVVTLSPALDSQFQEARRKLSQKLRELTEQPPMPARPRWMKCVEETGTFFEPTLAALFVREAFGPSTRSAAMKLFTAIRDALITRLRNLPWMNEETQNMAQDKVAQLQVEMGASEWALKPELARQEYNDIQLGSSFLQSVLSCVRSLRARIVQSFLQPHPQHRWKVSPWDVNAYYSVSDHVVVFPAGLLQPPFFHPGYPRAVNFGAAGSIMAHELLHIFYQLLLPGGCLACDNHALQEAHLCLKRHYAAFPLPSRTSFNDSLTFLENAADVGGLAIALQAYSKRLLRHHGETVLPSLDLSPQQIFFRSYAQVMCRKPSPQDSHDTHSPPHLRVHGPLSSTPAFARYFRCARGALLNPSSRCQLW

T2: human Kell glycoprotein, K form (KEL1) (human, UniProt P23276 1-732)
T2 construct: whole, on cells; On human K/K or K+k+ RBCs and on RBCs of K transgenic mice; also called K antigen; K variant
T2 sequence (looked up): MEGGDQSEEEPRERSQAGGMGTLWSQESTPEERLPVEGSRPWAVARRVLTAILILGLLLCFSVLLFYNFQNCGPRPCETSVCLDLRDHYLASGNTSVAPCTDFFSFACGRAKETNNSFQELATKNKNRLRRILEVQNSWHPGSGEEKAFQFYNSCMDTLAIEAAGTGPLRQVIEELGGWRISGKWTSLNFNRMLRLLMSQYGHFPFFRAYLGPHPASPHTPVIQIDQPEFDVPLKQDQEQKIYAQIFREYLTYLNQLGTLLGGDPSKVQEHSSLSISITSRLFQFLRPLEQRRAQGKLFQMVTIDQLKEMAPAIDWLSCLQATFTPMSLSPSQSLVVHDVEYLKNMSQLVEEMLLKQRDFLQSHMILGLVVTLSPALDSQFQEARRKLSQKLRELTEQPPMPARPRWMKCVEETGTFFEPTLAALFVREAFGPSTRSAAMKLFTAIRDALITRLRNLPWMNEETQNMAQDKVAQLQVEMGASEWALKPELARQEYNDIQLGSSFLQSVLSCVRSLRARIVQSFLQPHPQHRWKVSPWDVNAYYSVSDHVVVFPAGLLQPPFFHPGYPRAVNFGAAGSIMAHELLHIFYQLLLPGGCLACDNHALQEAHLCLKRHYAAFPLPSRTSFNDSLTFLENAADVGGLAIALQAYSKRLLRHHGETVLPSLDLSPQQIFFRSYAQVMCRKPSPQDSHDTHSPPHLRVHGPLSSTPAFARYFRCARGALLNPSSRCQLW

B1: PUMA 1 human IgG3-09 isoallotype (antibody)
heavy: EVQLQQSGPELVKPGASVKMSCKASGYTFTDYYMKWVKQSHGKSLEWIGDLNPNNGDTFYNQKFKGKATLTVDKSSSTAYIQLNSLTSEDSAVYYCAREAGSSFGSSCNYWGQGTTLTVS
light: SVVMTQTPKFLLVSAGDRVTITCKASQTVSKDVAWYQQQPGQSPKLLIYYASNRYTGVPDRFTGSGYGTDFTFTISTVQAEDLAVYFCQQDYSSPYTFGGGTKLEIK
notes: Isoallotype named in CLM-00007; not shown: human IgG3 heavy chain constant region, isoallotype IGHG3*09; human kappa light chain constant region (vector pFUSE2-CLIg-hk)
B2: PUMA 1 human IgG3-11 isoallotype (antibody)
heavy: EVQLQQSGPELVKPGASVKMSCKASGYTFTDYYMKWVKQSHGKSLEWIGDLNPNNGDTFYNQKFKGKATLTVDKSSSTAYIQLNSLTSEDSAVYYCAREAGSSFGSSCNYWGQGTTLTVS
light: SVVMTQTPKFLLVSAGDRVTITCKASQTVSKDVAWYQQQPGQSPKLLIYYASNRYTGVPDRFTGSGYGTDFTFTISTVQAEDLAVYFCQQDYSSPYTFGGGTKLEIK
notes: Isoallotype named in CLM-00007; not shown: human IgG3 heavy chain constant region, isoallotype IGHG3*11; human kappa light chain constant region (vector pFUSE2-CLIg-hk)
B3: PUMA 1 human IgG3-12 isoallotype (antibody)
heavy: EVQLQQSGPELVKPGASVKMSCKASGYTFTDYYMKWVKQSHGKSLEWIGDLNPNNGDTFYNQKFKGKATLTVDKSSSTAYIQLNSLTSEDSAVYYCAREAGSSFGSSCNYWGQGTTLTVS
light: SVVMTQTPKFLLVSAGDRVTITCKASQTVSKDVAWYQQQPGQSPKLLIYYASNRYTGVPDRFTGSGYGTDFTFTISTVQAEDLAVYFCQQDYSSPYTFGGGTKLEIK
notes: Isoallotype named in CLM-00007; not shown: human IgG3 heavy chain constant region, isoallotype IGHG3*12; human kappa light chain constant region (vector pFUSE2-CLIg-hk)
B4: PUMA 1 human IgG3-13 isoallotype (antibody)
heavy: EVQLQQSGPELVKPGASVKMSCKASGYTFTDYYMKWVKQSHGKSLEWIGDLNPNNGDTFYNQKFKGKATLTVDKSSSTAYIQLNSLTSEDSAVYYCAREAGSSFGSSCNYWGQGTTLTVS
light: SVVMTQTPKFLLVSAGDRVTITCKASQTVSKDVAWYQQQPGQSPKLLIYYASNRYTGVPDRFTGSGYGTDFTFTISTVQAEDLAVYFCQQDYSSPYTFGGGTKLEIK
notes: also called PUMA1-IgG3-13; not shown: human kappa light chain constant region (vector pFUSE2-CLIg-hk)
B5: PUMA 1 human IgG3-14 isoallotype (antibody)
heavy: EVQLQQSGPELVKPGASVKMSCKASGYTFTDYYMKWVKQSHGKSLEWIGDLNPNNGDTFYNQKFKGKATLTVDKSSSTAYIQLNSLTSEDSAVYYCAREAGSSFGSSCNYWGQGTTLTVS
light: SVVMTQTPKFLLVSAGDRVTITCKASQTVSKDVAWYQQQPGQSPKLLIYYASNRYTGVPDRFTGSGYGTDFTFTISTVQAEDLAVYFCQQDYSSPYTFGGGTKLEIK
notes: Isoallotype named in CLM-00007; not shown: human IgG3 heavy chain constant region, isoallotype IGHG3*14; human kappa light chain constant region (vector pFUSE2-CLIg-hk)
B6: PUMA 1 human IgG3-15 isoallotype (antibody)
heavy: EVQLQQSGPELVKPGASVKMSCKASGYTFTDYYMKWVKQSHGKSLEWIGDLNPNNGDTFYNQKFKGKATLTVDKSSSTAYIQLNSLTSEDSAVYYCAREAGSSFGSSCNYWGQGTTLTVS
light: SVVMTQTPKFLLVSAGDRVTITCKASQTVSKDVAWYQQQPGQSPKLLIYYASNRYTGVPDRFTGSGYGTDFTFTISTVQAEDLAVYFCQQDYSSPYTFGGGTKLEIK
notes: Isoallotype named in CLM-00007; not shown: human IgG3 heavy chain constant region, isoallotype IGHG3*15; human kappa light chain constant region (vector pFUSE2-CLIg-hk)
B7: PUMA 1 human IgG3-16 isoallotype (antibody)
heavy: EVQLQQSGPELVKPGASVKMSCKASGYTFTDYYMKWVKQSHGKSLEWIGDLNPNNGDTFYNQKFKGKATLTVDKSSSTAYIQLNSLTSEDSAVYYCAREAGSSFGSSCNYWGQGTTLTVS
light: SVVMTQTPKFLLVSAGDRVTITCKASQTVSKDVAWYQQQPGQSPKLLIYYASNRYTGVPDRFTGSGYGTDFTFTISTVQAEDLAVYFCQQDYSSPYTFGGGTKLEIK
notes: Isoallotype named in CLM-00007; not shown: human IgG3 heavy chain constant region, isoallotype IGHG3*16; human kappa light chain constant region (vector pFUSE2-CLIg-hk)
B8: PUMA 1 human IgG3-17 isoallotype (antibody)
heavy: EVQLQQSGPELVKPGASVKMSCKASGYTFTDYYMKWVKQSHGKSLEWIGDLNPNNGDTFYNQKFKGKATLTVDKSSSTAYIQLNSLTSEDSAVYYCAREAGSSFGSSCNYWGQGTTLTVS
light: SVVMTQTPKFLLVSAGDRVTITCKASQTVSKDVAWYQQQPGQSPKLLIYYASNRYTGVPDRFTGSGYGTDFTFTISTVQAEDLAVYFCQQDYSSPYTFGGGTKLEIK
notes: Isoallotype named in CLM-00007; not shown: human IgG3 heavy chain constant region, isoallotype IGHG3*17; human kappa light chain constant region (vector pFUSE2-CLIg-hk)

How the values were obtained:
[1] = biological target: T1, human Kell glycoprotein, k form (KEL2); experiment: flow cytometry on human K-k+ RBCs
[2] = biological target: T2, human Kell glycoprotein, K form (KEL1); experiment: flow cytometry on human K+k+ RBCs, detected with polyclonal anti-IgG
Protocol: Flow cytometry consisted of incubating test RBCs with PUMA 1 variants, followed by the anti-IgG being evaluated, followed by a detection reagent. Test RBCs included RBCs from K mice, wild-type mice, and reagent RBCs from humans with the phenotype of (K+k+) or (K−k+). Test RBCs were resuspended in 50 microliters of supernatants of PUMA 1 isoallotypes; in some cases a 1/10 dilution in phosphate buffered saline (PBS) was used. For purified IgG1-IgG4 PUMA 1, the antibodies were diluted in PBS at the indicated concentrations. The tested anti-IgG reagents were used undiluted. Detection reagents consisted of donkey anti-rabbit conjugated to phycoerythrin at a 1/200 dilution (Affymetrix cat #12-4739-81, Santa Clara, Calif.), goat anti-mouse IgM conjugated to allophycocyanin at a 1/100 dilution (BD Biosciences, cat #550826, San Jose, Calif.), and goat anti-mouse Igs conjugated to allophycocyanin at a 1/100 dilution (SouthernBiotech cat #1020-11s, Birmingham, Ala.). All anti-IgG subclass antibodies were conjugated to phycoerythrin, were purchased from SouthernBiotech (catalog numbers 9056-09, 9070-09, 9210-09, 9200-09), and were used at a dilution of 1.200. All incubations were performed for 30 min at room temperature, followed by three washes with PBS. All flow cytometry was performed on an Accuri 4 color cytometer (BD biosciences, San Jose Calif.) and all data was analyzed with Flo-Jo version 10.
To assess the sensitivity of commercially available anti-IgG preparations for different human IgG subclasses bound to RBCs, K+k+ RBCs were first incubated with PUMA 1 of the different human IgG subclasses, followed by incubation with anti-IgG. Treated RBCs were then stained with a fluorescently labeled antibody specific for the species in which the anti-IgG was generated (and non-reactive with human IgG). For each anti-IgG, the same secondary antibody was used to detect binding of the anti-IgG to each human PUMA 1 IgG subclass. To assess relative sensitivity, titrations of each PUMA 1 IgG subclass were carried out and samples were analyzed by flow cytometry using mean fluorescent intensity (MFI) to quantify staining (FIGS. 28A, 28B).

Binder | binding result [1] | binding result [2]
B1 | no binding | binds
B2 | no binding | binds
B3 | no binding | binds
B4 | no binding | binds
B5 | no binding | binds
B6 | no binding | binds
B7 | no binding | binds
B8 | no binding | binds

Reference: US20210356479A1 (BLOODWORKS, published 2021)
